This is an account of results in paper PMC3825537.

For the experiment, the target named is monomeric photosystem II complex (His-tagged PsbE) (Nicotiana tabacum | Nicotiana tabacum (endogenous in leaves)) (UniProt P69384). Briefly: native gel or EMSA; BN-PAGE (3-12 % gradient, 205 V, 5 h, 4 °C) of PSII purified by protocol A. On the technique in general: In EMSA bound probe runs differently from free probe, usually more slowly.

For “monomeric photosystem II complex (His-tagged PsbE) (from UniProt P69384 1-83; P69556 1-344)”, the stoichiometry N (as a rule, a count of units in the complex or per binding partner) is 2.
